Source: article PMC4560099
Each block holds one substance with its values, some of them ahead of it.

Biological target: 14-3-3ε (UniProt P62259)
Experiment: GST-14-3-3ε pull-down from neuronal lysate
Settings: reference: wild-type CRTC1270

binding against the reference (sites S64): weaker
Substance: CRTC1 (CRTC1270 reporter) 1-270 (from UniProt Q68ED7) S64A

Substance: CRTC1 (CRTC1270 reporter) 1-270 (from UniProt Q68ED7) S64A/S151A/S245A
binding against the reference (sites S64,S151,S245): lost

binding against the reference (sites S151): weaker
Substance: CRTC1 (CRTC1270 reporter) 1-270 (from UniProt Q68ED7) S151A

Substance: CRTC1 (CRTC1270 reporter) 1-270 (from UniProt Q68ED7) S245A
binding against the reference (sites S245): weaker
